Positions count from the first letter of the chain named.
T1: human EphA8 extracellular region-SEAP-His protein (human, UniProt P29322 28-542)
T1 construct: extracellular domain; also called hEphA8-SEAP-His
T1 sequence (looked up): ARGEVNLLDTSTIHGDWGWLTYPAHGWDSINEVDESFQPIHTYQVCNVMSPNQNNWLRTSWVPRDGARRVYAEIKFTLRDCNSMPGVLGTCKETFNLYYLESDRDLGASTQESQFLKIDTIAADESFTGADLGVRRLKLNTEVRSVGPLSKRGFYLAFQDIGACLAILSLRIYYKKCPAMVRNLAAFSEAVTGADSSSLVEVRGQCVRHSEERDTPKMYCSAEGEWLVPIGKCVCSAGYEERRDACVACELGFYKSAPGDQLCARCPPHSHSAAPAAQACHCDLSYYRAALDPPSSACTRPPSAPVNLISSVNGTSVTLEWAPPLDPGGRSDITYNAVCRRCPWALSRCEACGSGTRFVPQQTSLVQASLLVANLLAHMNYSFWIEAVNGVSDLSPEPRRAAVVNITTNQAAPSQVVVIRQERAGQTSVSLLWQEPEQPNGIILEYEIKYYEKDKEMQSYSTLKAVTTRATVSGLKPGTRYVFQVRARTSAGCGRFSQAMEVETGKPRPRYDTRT

T2: human EphA10 extracellular region-SEAP-His protein (human, UniProt Q5JZY3 34-565)
T2 construct: extracellular domain; also called hEphA10-SEAP-His
T2 sequence (looked up): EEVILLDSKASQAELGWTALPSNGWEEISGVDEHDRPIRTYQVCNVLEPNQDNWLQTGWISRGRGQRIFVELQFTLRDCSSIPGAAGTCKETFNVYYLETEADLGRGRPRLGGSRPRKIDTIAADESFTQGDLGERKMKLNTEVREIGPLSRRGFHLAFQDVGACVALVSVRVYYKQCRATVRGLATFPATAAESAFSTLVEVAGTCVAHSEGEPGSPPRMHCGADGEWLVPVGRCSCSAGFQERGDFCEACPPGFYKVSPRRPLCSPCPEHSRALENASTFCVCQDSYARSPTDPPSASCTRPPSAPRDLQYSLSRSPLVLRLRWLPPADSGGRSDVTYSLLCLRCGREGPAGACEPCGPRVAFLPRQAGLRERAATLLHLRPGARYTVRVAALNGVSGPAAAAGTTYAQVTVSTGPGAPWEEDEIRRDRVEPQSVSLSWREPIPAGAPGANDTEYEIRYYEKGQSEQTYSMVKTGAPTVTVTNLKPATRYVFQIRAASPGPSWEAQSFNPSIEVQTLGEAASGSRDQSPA

T3: human EphA6 extracellular region-SEAP-His protein (human, UniProt Q9UF33 23-550)
T3 construct: extracellular domain; also called hEphA6-SEAP-His
T3 sequence (looked up): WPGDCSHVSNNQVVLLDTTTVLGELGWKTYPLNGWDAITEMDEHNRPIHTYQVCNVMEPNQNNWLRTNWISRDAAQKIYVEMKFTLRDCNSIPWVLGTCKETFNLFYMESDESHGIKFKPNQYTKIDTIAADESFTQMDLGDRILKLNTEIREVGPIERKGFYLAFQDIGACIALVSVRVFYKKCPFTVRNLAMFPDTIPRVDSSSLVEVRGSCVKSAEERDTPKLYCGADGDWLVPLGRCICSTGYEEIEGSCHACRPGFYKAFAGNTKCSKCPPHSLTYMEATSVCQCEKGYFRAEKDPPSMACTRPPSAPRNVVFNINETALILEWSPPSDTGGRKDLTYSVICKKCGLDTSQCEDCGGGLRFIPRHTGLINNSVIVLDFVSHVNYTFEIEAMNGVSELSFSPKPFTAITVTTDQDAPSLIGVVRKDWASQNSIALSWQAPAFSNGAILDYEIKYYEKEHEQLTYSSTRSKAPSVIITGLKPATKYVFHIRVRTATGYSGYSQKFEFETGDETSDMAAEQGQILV

B1: humanized antibody No. 89 (antibody, human IgG1, kappa)
heavy: QIQLVQSGSELKKPGASVKVSCKASGYTFTDYSMHWVRQAPGQGLKWMGWINTETGEPTYAQGFTGRFVFSLDTSVSTAYLQISSLKAEDTAVYYCARIPLYYYGSRYWYFDVWGQGTTVTVSSASTKGPSVFPLAPSSKSTSGGTAALGCLVKDYFPEPVTVSWNSGALTSGVHTFPAVLQSSGLYSLSSVVTVPSSSLGTQTYICNVNHKPSNTKVDKRVEPKSCDKTHTCPPCPAPPAAAPSVFLFPPKPKDTLMISRTPEVTCVVVDVSHEDPEVQFNWYVDGVEVHNAKTKPREEQFNSTFRVVSVLTVVHQDWLNGKEYKCKVSNKGLPAPIEKTISKTKGQPREPQVYTLPPSREEMTKNQVSLTCLVKGFYPSDIAVEWESNGQPENNYKTTPPMLDSDGSFFLYSKLTVDKSRWQQGNVFSCSVMHEALHNHYTQKSLSLSPG
light: DIQMTQSPSSLSASVGDRVTITCRASENIYRNLAWYQQKPGKAPQLLLYAATNLADGVPSRFSGSGSGTDYTLTISSLQPEDFATYYCQHFWGTPWTFGQGTKVEIKRTVAAPSVFIFPPSDEQLKSGTASVVCLLNNFYPREAKVQWKVDNALQSGNSQESVTEQDSKDSTYSLSSTLTLSKADYEKHKVYACEVTHQGLSSPVTKSFNRGEC
notes: human Ig kappa; also called L1-6/HA4
B2: humanized antibody No. 140 (antibody, human IgG2)
heavy: QVQLVQSGSELKKPGASVKVSCKASGYTFTDYSMHWVRQAPGQGLKWMGWINTETGEPTYAQGFTGRFVFSLDTSVSTAYLQISSLKAEDTAVYYCARIPLYYYGSRYWYFDVWGQGTTVTVSSASTKGPSVFPLAPSSRSTSESTAALGCLVKDYFPEPVTVSWNSGALTSGVHTFPAVLQSSGLYSLSSVVTVPSSNFGTQTYTCNVDHKPSNTKVDKTVERKSCVECPPCPAPPAAAPSVFLFPPKPKDTLMISRTPEVTCVVVDVSHEDPEVQFNWYVDGVEVHNAKTKPREEQFNSTFRVVSVLTVVHQDWLNGKEYKCKVSNKGLPAPIEKTISKTKGQPREPQVYTLPPSREEMTKNQVSLTCLVKGFYPSDIAVEWESNGQPENNYKTTPPMLDSDGSFFLYSKLTVDKSRWQQGNVFSCSVMHEALHNHYTQKSLSLSPG
light: B1 light with Q45K, L48V
notes: human Ig kappa; also called L1-4/HA2
B3: humanized antibody No. 143 (antibody, human IgG2)
heavy: B2 heavy with V2I, Q62D, G63D, T65K
light: B1 light with Q45K, L48V
notes: human Ig kappa; also called L1-4/HK4
B4: humanized antibody No. 154 (antibody, human IgG2)
heavy: B2 heavy with K46E, Q62D, G63D, T65K
light: B1 light with Q45K, P80S
notes: human Ig kappa; also called L1-5/HK1
B5: humanized antibody No. 151 (antibody, human IgG2)
heavy: B2 heavy with V2I
light: B1 light with Q45K, P80S
notes: human Ig kappa; also called L1-5/HA4
B6: humanized antibody No. 145 (antibody, human IgG2)
heavy: B2 heavy with Q62D, G63D, T65K
light: B1 light with Q45K, P80S
notes: human Ig kappa; also called L1-5/HK2
B7: humanized antibody No. 92 (antibody, human IgG1, kappa)
heavy: B1 heavy with Q62D, G63D, T65K
light: B1 light
notes: human Ig kappa; also called L1-6/HK4
B8: humanized antibody No. 142 (antibody, human IgG2)
heavy: B2 heavy with Q62D, G63D, T65K
light: B1 light with Q45K, L48V
notes: human Ig kappa; also called L1-4/HK2
B9: humanized antibody No. 144 (antibody, human IgG2)
heavy: B2 heavy with K46E, Q62D, G63D, T65K
light: B1 light
notes: human Ig kappa; also called L1-6/HK1
B10: humanized antibody No. 138 (antibody, human IgG2)
heavy: B2 heavy with V2I
light: B1 light with Q45K, L48V
notes: human Ig kappa; also called L1-4/HA4
B11: humanized antibody No. 152 (antibody, human IgG2)
heavy: B2 heavy with K46E
light: B1 light with Q45K, P80S
notes: human Ig kappa; also called L1-5/HA1
B12: humanized antibody No. 90 (antibody, human IgG1, kappa)
heavy: B1 heavy with I2V, K46E, Q62D, G63D, T65K
light: B1 light
notes: as for B9
B13: humanized antibody No. 139 (antibody, human IgG2)
heavy: B2 heavy with K46E
light: B1 light with Q45K, L48V
notes: human Ig kappa; also called L1-4/HA1
B14: humanized antibody No. 91 (antibody, human IgG1, kappa)
heavy: B1 heavy with I2V, Q62D, G63D, T65K
light: B1 light
notes: human Ig kappa; also called L1-6/HK2
B15: humanized antibody No. 141 (antibody, human IgG2)
heavy: B2 heavy with K46E, Q62D, G63D, T65K
light: B1 light with Q45K, L48V
notes: human Ig kappa; also called L1-4/HK1
B16: humanized antibody No. 153 (antibody, human IgG2)
heavy: B2 heavy
light: B1 light with Q45K, P80S
notes: human Ig kappa; also called L1-5/HA2

biological target: T1, human EphA8 extracellular …; experiment: ELISA

| A450 as % of hEphA4-SEAP-His | Binder |
| --- | --- |
| 5.7% | B1 |
| 5.4% | B2 |
| 6% | B3 |
| 5.5% | B4 |
| 6.9% | B5 |
| 6.6% | B6 |
| 6.7% | B7 |
| 5.7% | B8 |
| 5.8% | B9 |
| 5.4% | B10 |
| 6% | B11 |
| 5.4% | B12 |
| 6% | B13 |
| 6.2% | B14 |
| 5.5% | B15 |
| 6.1% | B16 |

biological target: T4, human EphA2 extracellular region-SEAP-His protein (human, UniProt P29317 24-537); experiment: ELISA
T4 construct: extracellular domain; also called hEphA2-SEAP-His
T4 sequence (P29317 24-537): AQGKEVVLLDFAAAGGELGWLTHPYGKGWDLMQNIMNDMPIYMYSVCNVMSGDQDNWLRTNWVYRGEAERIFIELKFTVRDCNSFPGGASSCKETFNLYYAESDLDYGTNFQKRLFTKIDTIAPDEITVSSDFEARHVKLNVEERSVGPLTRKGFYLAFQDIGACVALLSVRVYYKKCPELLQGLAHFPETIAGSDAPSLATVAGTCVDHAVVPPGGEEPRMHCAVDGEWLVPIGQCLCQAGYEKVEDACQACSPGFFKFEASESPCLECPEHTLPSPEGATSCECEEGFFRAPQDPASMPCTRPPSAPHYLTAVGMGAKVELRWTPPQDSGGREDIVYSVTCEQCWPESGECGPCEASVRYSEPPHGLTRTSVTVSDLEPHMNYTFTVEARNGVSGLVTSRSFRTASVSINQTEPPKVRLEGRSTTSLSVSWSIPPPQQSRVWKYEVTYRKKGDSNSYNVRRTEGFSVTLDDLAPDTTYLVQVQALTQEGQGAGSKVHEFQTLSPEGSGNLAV

| A450 as % of hEphA4-SEAP-His | Binder |
| --- | --- |
| 5.6% | B1 |
| 5.3% | B2 |
| 5.7% | B3 |
| 6.2% | B4 |
| 6.9% | B5 |
| 6.5% | B6 |
| 6.9% | B7 |
| 5.6% | B8 |
| 5.6% | B9 |
| 5% | B10 |
| 5.8% | B11 |
| 5.2% | B12 |
| 5.9% | B13 |
| 6.1% | B14 |
| 5.2% | B15 |
| 6% | B16 |

biological target: T5, human EphA4 extracellular region-SEAP-His protein (human, UniProt P54764 20-547); experiment: ELISA
T5 construct: also called hEphA4-SEAP-His
T5 sequence (P54764 20-547): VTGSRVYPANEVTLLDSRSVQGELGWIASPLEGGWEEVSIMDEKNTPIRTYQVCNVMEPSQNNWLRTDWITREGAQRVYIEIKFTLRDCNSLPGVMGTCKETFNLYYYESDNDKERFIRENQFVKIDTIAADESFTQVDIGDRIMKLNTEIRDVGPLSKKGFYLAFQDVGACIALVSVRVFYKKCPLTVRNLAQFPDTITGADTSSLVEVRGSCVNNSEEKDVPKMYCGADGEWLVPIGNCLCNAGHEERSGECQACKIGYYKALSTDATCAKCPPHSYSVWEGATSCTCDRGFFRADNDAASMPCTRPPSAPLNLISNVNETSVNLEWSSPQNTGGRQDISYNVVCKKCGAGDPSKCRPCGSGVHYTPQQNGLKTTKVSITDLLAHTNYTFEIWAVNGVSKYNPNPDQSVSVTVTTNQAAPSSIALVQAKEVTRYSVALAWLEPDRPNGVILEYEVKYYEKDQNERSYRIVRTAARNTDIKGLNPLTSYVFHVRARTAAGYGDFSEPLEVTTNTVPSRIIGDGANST

| A450 as % of hEphA4-SEAP-His | Binder |
| --- | --- |
| 100% | B1 |
| 100% | B2 |
| 100% | B3 |
| 100% | B4 |
| 100% | B5 |
| 100% | B6 |
| 100% | B7 |
| 100% | B8 |
| 100% | B9 |
| 100% | B10 |
| 100% | B11 |
| 100% | B12 |
| 100% | B13 |
| 100% | B14 |
| 100% | B15 |
| 100% | B16 |

biological target: T2, human EphA10 extracellular …; experiment: ELISA

| A450 as % of hEphA4-SEAP-His | Binder |
| --- | --- |
| 5.7% | B1 |
| 5.2% | B2 |
| 5.2% | B3 |
| 5.9% | B4 |
| 6.6% | B5 |
| 6.5% | B6 |
| 6.6% | B7 |
| 5.4% | B8 |
| 5.7% | B9 |
| 5% | B10 |
| 5.8% | B11 |
| 5.1% | B12 |
| 5.5% | B13 |
| 8.5% | B14 |
| 5.2% | B15 |
| 6% | B16 |

biological target: T3, human EphA6 extracellular …; experiment: ELISA

| A450 as % of hEphA4-SEAP-His | Binder |
| --- | --- |
| 8.4% | B1 |
| 10.8% | B2 |
| 9.9% | B3 |
| 8.4% | B4 |
| 9.9% | B5 |
| 8.6% | B6 |
| 9.6% | B7 |
| 9.7% | B8 |
| 8.1% | B9 |
| 10.2% | B10 |
| 8.3% | B11 |
| 7.6% | B12 |
| 10% | B13 |
| 8.8% | B14 |
| 9% | B15 |
| 8.7% | B16 |

From US20190077860A1 (EISAI R AND D MANAGEMENT, published 2019)
